# Results published in article PMC7720491.
# What was measured:
# [1] = target: recombinant F. hepatica cathepsin L1 (FhCL1), activated mature enzyme (Fasciola hepatica)
# [2] = target: human cathepsin K (HsCK) (human) (UniProt P43235); test: enzyme inhibition kinetics (Ki, Morrison equation)
# [3] = target: human cathepsin L (HsCL) (human); test: enzyme inhibition kinetics (Ki, Morrison equation)
# [4] = target: recombinant F. hepatica cathepsin L1 (FhCL1), activated mature enzyme (Fasciola hepatica); test: enzyme inhibition kinetics (Ki, Morrison equation)
# [5] = target: recombinant F. hepatica cathepsin L2 (FhCL2), activated mature enzyme (Fasciola hepatica); test: enzyme inhibition kinetics (Ki, Morrison equation)
# [6] = target: recombinant F. hepatica cathepsin L3 (FhCL3), activated mature enzyme (Fasciola hepatica); test: enzyme inhibition kinetics (Ki, Morrison equation)
# [7] = target: recombinant F. hepatica cathepsin L2 (FhCL2), activated mature enzyme (Fasciola hepatica)
# [8] = target: recombinant F. hepatica cathepsin L3 (FhCL3), activated mature enzyme (Fasciola hepatica)
# [9] = target: recombinant F. hepatica cathepsin L1 (FhCL1), activated mature enzyme (Fasciola hepatica); remark: listed apart in the source
# [10] = target: recombinant F. hepatica cathepsin L3 (FhCL3), activated mature enzyme (Fasciola hepatica); remark: listed apart in the source
# human cathepsin K (HsCK) (human), sequence (P43235 115-329): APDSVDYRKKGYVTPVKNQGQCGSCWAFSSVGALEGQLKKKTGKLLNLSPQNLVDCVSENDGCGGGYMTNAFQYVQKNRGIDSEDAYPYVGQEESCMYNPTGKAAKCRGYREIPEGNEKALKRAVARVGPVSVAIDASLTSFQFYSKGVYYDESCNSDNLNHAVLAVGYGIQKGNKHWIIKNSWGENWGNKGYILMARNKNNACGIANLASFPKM
Substance,"percent inhibition of recombinant peptidase activity by 10 nM propeptide, pH 7.0 [1]",Ki [2],Ki [3],Ki [4],Ki [5],Ki [6],"percent inhibition of recombinant peptidase activity by 10 nM propeptide, pH 7.0 [7]","percent inhibition of recombinant peptidase activity by 10 nM propeptide, pH 7.0 [8]","percent reduction of peptidase activity by 500 nM 33-mer peptide, pH 7.0 [9]","percent reduction of peptidase activity by 500 nM 33-mer peptide, pH 7.0 [10]"
ppFhCL3_Tyr^46Lys^47/Ala^46Ala^47 (domain or fragment),85%,> 10000 nM,> 10000 nM,1.26 nM,> 10000 nM,> 10000 nM,–,–,–,–
ppFhCL3_Leu^66/Gly^66 (domain or fragment),90%,> 10000 nM,> 10000 nM,0.05 nM,> 10000 nM,8 nM,–,–,–,–
ppFhCL3_Glu^68/Arg^68 (domain or fragment),95%,1.4 nM,6.04 nM,0.3 nM,0.02 nM,0.002 nM,< 20%,< 20%,–,–
33-mer synthetic peptide derived from the FhCL3 propeptide (p45 to p77),–,–,–,–,–,–,–,–,30%,50%
"recombinant FhCL3 propeptide (ppFhCL3), wild type (from UniProt A0A879R2T5 1-326) (domain or fragment)",98%,2 nM,26.6 nM,0.04 nM,0.004 nM,< 0.002 nM,97%,100%,–,–
